Measured values published in patent US20150259371A1, “METHODS AND COMPOUNDS FOR INHIBITING GLYCOSYLTRANSFERASES” (SIMON FRASER UNIVERSITY, priority 2010, published 2015).

Substrate: COc1ccc(O[C@H]2S[C@H](CO)[C@@H](O)[C@H](O)[C@H]2NC(C)=O)cc1
Assay: OGA kinetics, Michaelis-Menten hydrolysis of pMP glycosides
Format: biochemical, human
Conditions: other: 37° C., pH 7.4
Protocol: OGA kinetics: Synthesis and characterization of para-methoxyphenyl-5SGlcNAc is described in Example II. Kinetics were performed at 37° C. in PBS, pH 7.4 in a total volume of […]. Substrate concentrations of 25 μM to 1.5 mM were used for pMP-GlcNAc and 25 to 800 μM for pMP-5SGlcNAc. OGA (which was over-expressed and purified as described in Ref. ^42) was used at a concentration of 1 μM for pMP-GlcNAc and 3.6 μM for pMP-5SGlcNAc. Rates were monitored at a wavelength of 296 nm over the course of 10-20 min. Data were fit to the Michaelis-Menten equation in GRAFIT^41 and the kcat and KM values determined.

B1: OGA (Homo sapiens) (protein)
chain: MVQKESQATLEERESELSSNPAASAGASLEPPAAPAPGEDNPAGAGGAAVAGAAGGARRFLCGVVEGFYGRPWVMEQRKELFRRLQKWELNTYLYAPKDDYKHRMFWREMYSVEEAEQLMTLISAAREYEIEFIYAISPGLDITFSNPKEVSTLKRKLDQVSQFGCRSFALLFDDIDHNMCAADKEVFSSFAHAQVSITNEIYQYLGEPETFLFCPTEYCGTFCYPNVSQSPYLRTVGEKLLPGIEVLWTGPKVVSKEIPVESIEEVSKIIKRAPVIWDNIHANDYDQKRLFLGPYKGRSTELIPRLKGVLTNPNCEFEANYVAIHTLATWYKSNMNGVRKDVVMTDSEDSTVSIQIKLENEGSDEDIETDVLYSPQMALKLALTEWLQEFGVPHQYSSRQVAHSGAKASVVDGTPLVAAPSLNATTVVTTVYQEPIMSQGAALSGEPTTLTKEEEKKQPDEEPMDMVVEKQEETDHKNDNQILSEIVEAKMAEELKPMDTDKESIAESKSPEMSMQEDCISDIAPMQTDEQTNKEQFVPGPNEKPLYTAEPVTLEDLQLLADLFYLPYEHGPKGAQMLREFQWLRANSSVVSVNCKGKDSEKIEEWRSRAAKFEEMCGLVMGMFTRLSNCANRTILYDMYSYVWDIKSIMSMVKSFVQWLGCRSHSSAQFLIGDQEPWAFRGGLAGEFQRLLPIDGANDLFFQPPPLTPTSKVYTIRPYFPKDEASVYKICREMYDDGVGLPFQSQPDLIGDKLVGGLLSLSLDYCFVLEDEDGICGYALGTVDVTPFIKKCKISWIPFMQEKYTKPNGDKELSEAEKIMLSFHEEQEVLPETFLANFPSLIKMDIHKKVTDPSVAKSMMACLLSSLKANGSRGAFCEVRPDDKRILEFYSKLGCFEIAKMEGFPKDVVILGRSL
notes: made in house
Question: For B1, which Km is on record?
Answer: 35 µM
